In US20100184663A1 (UNIVERSITY OF UTAH RESEARCH FOUNDATION, published 2010):
Like-named read-outs stand apart in the source and are kept apart here. Bridge positions count the residues as written; N and C are the ends. Square brackets hold non-standard residues; d marks the D form. Ends that are not written are not given here. I, II: the chains in the order shown.

B1: C5C(PIE7-GK)2 (peptide)
peptide: G[dA][dC][dD][dY][dP][dE][dW][dQ][dW][dL][dC][dA][dA]G[dK]
modifications: disulfide 3-12 (inferred); also: dimer joined C- to C-terminus by PEG5 spacer on C-terminal Lys
B2: PEG-(PIE2-AAA)2 (peptide)
peptide: Ac-[dK]G[dA][dC][dD][dY][dP][dE][dW][dR][dW][dL][dC][dA][dA][dA]-NH2
modifications: disulfide 4-13 (inferred); also: dimer: N-terminal Lys of both peptides joined by bis(NHS-ester)PEG crosslinker
B3: N0C(PIE7)2 (peptide)
peptide: [dK]G[dA][dC][dD][dY][dP][dE][dW][dQ][dW][dL][dC][dA][dA]
modifications: disulfide 4-13 (inferred); also: dimer joined N- to C-terminus by zero length spacer
B4: PIE7-GK short claw (peptide)
peptide: G[dA][dC][dD][dY][dP][dE][dW][dQ][dW][dL][dC][dA][dA]G[dK]
modifications: disulfide 3-12 (inferred); also: three peptides attached directly to central scaffold TSAT, site not given here
B5: PEG-(PIE7)2 (peptide)
peptide: Ac-[dK]G[dA][dC][dD][dY][dP][dE][dW][dQ][dW][dL][dC][dA][dA]-NH2
modifications: disulfide 4-13 (inferred); also: dimer: N-terminal Lys of both peptides joined by Bis-dPEG9 NHS ester crosslinker
B6: PIE2 (peptide)
peptide: Ac-[dK]G[dA][dC][dD][dY][dP][dE][dW][dR][dW][dL][dC][dA][dA]-NH2
modifications: disulfide 4-13 (inferred)
B7: PIE2-AAA (peptide)
peptide: Ac-[dK]G[dA][dC][dD][dY][dP][dE][dW][dR][dW][dL][dC][dA][dA][dA]-NH2
modifications: disulfide 4-13 (inferred)
B8: PIE7-GK long claw (peptide)
peptide: G[dA][dC][dD][dY][dP][dE][dW][dQ][dW][dL][dC][dA][dA]G[dK]
modifications: disulfide 3-12 (inferred); also: three peptides attached to central scaffold LC-TSAT (six-atom spacer), site not given here
B9: N5C(PIE7)2 (peptide)
peptide: [dK]G[dA][dC][dD][dY][dP][dE][dW][dQ][dW][dL][dC][dA][dA]
modifications: disulfide 4-13 (inferred); also: dimer joined N- to C-terminus by PEG5 spacer
B10: N0N(PIE7)2 (peptide)
peptide: [dK]G[dA][dC][dD][dY][dP][dE][dW][dQ][dW][dL][dC][dA][dA]
modifications: disulfide 4-13 (inferred); also: dimer joined N- to N-terminus by zero length spacer
B11: N9N(PIE7)3 (peptide)
peptide: [dK]G[dA][dC][dD][dY][dP][dE][dW][dQ][dW][dL][dC][dA][dA]
modifications: disulfide 4-13 (inferred); also: trimer, N-termini joined by PEG9 spacers
B12: 2K-PIE2 (peptide)
peptide: Ac-[dK][dK]G[dA][dC][dD][dY][dP][dE][dW][dR][dW][dL][dC][dA][dA]-NH2
modifications: disulfide 5-14 (inferred)
B13: C0C(PIE7-GK)3 (peptide)
peptide 1: G[dA][dC][dD][dY][dP][dE][dW][dQ][dW][dL][dC][dA][dA]G[dK]
peptide 2: G[dA][dC][dD][dY][dP][dE][dW][dQ][dW][dL][dC][dA][dA]G[dK][dK]
modifications: disulfide I:3-I:12, II:3-II:12 (inferred); also: trimer: two chain 1 copies joined via C-terminal Lys by zero length spacers to the C-terminal Lys of central chain 2
B14: PEG-PIE7 (peptide)
peptide: Ac-KG[dA][dC][dD][dY][dP][dE][dW][dQ][dW][dL][dC][dA][dA]-NH2
modifications: disulfide 4-13 (inferred); not fully specified (residue 1)
B15: D10-p5 (peptide)
peptide: Ac-[dK][dK]G[dA][dC][dE][dL][dL]G[dW][dE][dW][dA][dW][dL][dC][dA][dA]-NH2
modifications: disulfide 5-16 (inferred)
B16: C9C(PIE7-GK)2 (peptide)
peptide: G[dA][dC][dD][dY][dP][dE][dW][dQ][dW][dL][dC][dA][dA]G[dK]
modifications: disulfide 3-12 (inferred); also: dimer joined C- to C-terminus by PEG9 spacer on C-terminal Lys
B17: N5N(PIE7)2 (peptide)
peptide: [dK]G[dA][dC][dD][dY][dP][dE][dW][dQ][dW][dL][dC][dA][dA]
modifications: disulfide 4-13 (inferred); also: dimer joined N- to N-terminus by PEG5 spacer
B18: PIE8 (peptide)
peptide: Ac-[dK]G[dA][dC][dD][dY][dK][dE][dW][dQ][dW][dL][dC][dA][dA]-NH2
modifications: disulfide 4-13 (inferred)

Tests used:
Test in all cases: cell-based or functional assay
[1] = molecular target: T1, HIV-1 gp41 (HXB2 strain) (HIV-1 HXB2, UniProt P04578 512-856)
[2] = molecular target: HIV-1 gp41 (JRFL strain) (HIV-1 JRFL)
[3] = molecular target: T1, HIV-1 gp41 (HXB2 strain); remark: listed apart in the source
[4] = molecular target: T1, HIV-1 gp41 (HXB2 strain); remark: listed apart in the source

Binder	IC50 (HXB2), pseudovirion entry [1] [nM]	IC50 (JRFL), pseudovirion entry [2] [nM]	IC50 (HXB2), single-cycle viral infectivity assay [4] [nM]	also measured
B1	0.355	203		
B2				IC50 (HXB2), single-cycle viral infectivity assay [3]: 21 nM; fold improvement of IC50 over the corresponding monomer [3]: ~70 fold
B3	0.534	402		
B4	0.234	86.6		
B5	1.9	2300	1.9	fold improvement of IC50 over the corresponding monomer [3]: ~325 fold
B6			1320	
B7			1440	
B8	0.124	20.6		
B9	0.575	300		
B10	0.801	1090		
B11	0.25	220		
B12			2570	fold decrease in fold potency against PIE2, viral entry (HXB2) [3]: ~2 fold
B13	0.117	16.1		
B14			940	fold reduction in potency against unmodified PIE7, viral entry (HXB2) [3]: ~1.5 fold
B15			9510	
B16	0.354	215		
B17	1.13	1410		
B18			1680	
